According to patent publication US20180362645A1:

Assays:
Experiment in all cases: cell-based or functional assay
[1] = target: human pituitary adenylate cyclase-activating polypeptide type I receptor (human) (UniProt P41586)
[2] = target: T1, VPAC2
T1 sequence (P41587 whole entry, species assumed, looked up): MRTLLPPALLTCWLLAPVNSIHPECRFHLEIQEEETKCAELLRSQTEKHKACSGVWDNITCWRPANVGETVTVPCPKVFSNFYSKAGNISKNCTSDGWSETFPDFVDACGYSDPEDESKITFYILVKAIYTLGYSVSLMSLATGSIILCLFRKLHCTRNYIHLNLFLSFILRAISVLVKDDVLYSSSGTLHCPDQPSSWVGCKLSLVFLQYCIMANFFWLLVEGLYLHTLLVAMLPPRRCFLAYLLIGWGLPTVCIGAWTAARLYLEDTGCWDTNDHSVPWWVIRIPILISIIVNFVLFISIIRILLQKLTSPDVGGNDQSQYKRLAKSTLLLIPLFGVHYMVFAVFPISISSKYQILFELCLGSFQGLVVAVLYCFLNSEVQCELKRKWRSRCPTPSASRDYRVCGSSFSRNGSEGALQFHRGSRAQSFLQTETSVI

[3] = target: T2, VPAC1
T2 sequence (P32241 whole entry, species assumed, looked up): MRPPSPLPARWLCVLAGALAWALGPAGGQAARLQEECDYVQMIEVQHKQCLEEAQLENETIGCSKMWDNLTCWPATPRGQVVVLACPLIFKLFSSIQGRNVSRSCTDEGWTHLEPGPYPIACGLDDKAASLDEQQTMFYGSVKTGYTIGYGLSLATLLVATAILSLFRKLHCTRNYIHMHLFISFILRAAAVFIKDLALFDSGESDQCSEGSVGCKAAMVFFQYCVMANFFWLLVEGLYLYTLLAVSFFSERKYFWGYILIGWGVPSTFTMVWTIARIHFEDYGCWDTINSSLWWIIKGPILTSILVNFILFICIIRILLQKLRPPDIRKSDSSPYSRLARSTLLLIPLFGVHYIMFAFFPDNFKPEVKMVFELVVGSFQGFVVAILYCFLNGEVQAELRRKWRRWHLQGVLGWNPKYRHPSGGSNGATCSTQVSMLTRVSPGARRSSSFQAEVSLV

Maxadilan, sequence (P30659 24-84 limits assumed): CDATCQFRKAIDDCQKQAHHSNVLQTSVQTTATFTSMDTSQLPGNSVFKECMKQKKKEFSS
human pituitary adenylate cyclase-activating polypeptide type I receptor (human), sequence (P41586 21-468): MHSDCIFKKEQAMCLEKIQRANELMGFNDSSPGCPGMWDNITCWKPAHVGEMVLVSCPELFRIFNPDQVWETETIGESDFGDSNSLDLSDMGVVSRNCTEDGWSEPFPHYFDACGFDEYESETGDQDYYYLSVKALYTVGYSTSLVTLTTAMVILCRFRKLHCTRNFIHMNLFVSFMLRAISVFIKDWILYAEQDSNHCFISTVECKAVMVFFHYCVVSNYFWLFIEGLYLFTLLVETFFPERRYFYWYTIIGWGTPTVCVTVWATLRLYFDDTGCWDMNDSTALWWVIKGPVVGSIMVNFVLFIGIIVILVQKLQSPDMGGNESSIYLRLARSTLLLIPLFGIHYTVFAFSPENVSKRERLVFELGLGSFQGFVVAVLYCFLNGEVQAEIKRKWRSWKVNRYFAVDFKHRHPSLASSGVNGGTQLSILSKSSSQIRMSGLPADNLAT

How did the PAC1 EC50 (agonist activity) [1] turn out when “Maxadilan (from UniProt P30659 24-84) (ligand)” was run?
Its PAC1 EC50 (agonist activity) is 0.06 nM.

What about the VPAC2 EC50 (agonist activity) [2] of the same substance?
Its VPAC2 EC50 (agonist activity) is over 1000 nM.

And the VPAC1 EC50 (agonist activity) [3]?
Its VPAC1 EC50 (agonist activity) is over 1000 nM.
